The target in experiment [1] is HLA-A2/WT1 126-134 peptide complex on cells (human). The experiment in a line: FACS, T2 cells loaded with 10^-4M WT1 peptide. (In general: Flow cytometry measures light scatter and fluorescence of single cells or particles in a stream.)
Experiment [2] addresses HLA-A2 positive, antigen negative cells. Put plainly: FACS, JVM-2 cells (lymphoblast, WT1 mRNA -).
Experiment [3] shares this target. Put plainly: FACS, U266 cells (multiple myeloma, WT1 mRNA -).
Experiment [4] has as its target HLA-A2/WT1 126-134 peptide complex on cells (human). Put plainly: FACS, T2 cells loaded with WT1 peptide 1x10e-5M, anti-human PE.
For experiment [5], the target named is HLA-A2 positive, antigen negative cells. The experiment in a line: FACS, IM-9 cells (multiple myeloma, WT1 mRNA -).
Experiment [6] has as its target HLA-A2/WT1 126-134 peptide complex on cells (human). The experiment in a line: FACS, T2 cells loaded with WT1 peptide 1x10e-4M, anti-human PE.
For experiment [7], the target named is HLA-A2/MAGE-A9 223-231 peptide complex on cells (human). Put plainly: FACS, T2 cells loaded with MAGE-A9 [..], anti-human PE.
Experiment [8] deals with HLA-A2/WT1-S6 peptide on T2 cells (human). The experiment in a line: FACS, T2 cells loaded with WT1-S6 [..], anti-human PE.
Experiment [9] concerns the target HLA-A2/WT1-S13 peptide on T2 cells (human). The experiment in a line: FACS, T2 cells loaded with WT1-S13 [..], anti-human PE.
Experiment [10] concerns the target HLA-A2 positive, antigen negative cells. The experiment in a line: FACS, A498 cells (printed: non-small cell lung adenocarcinoma, WT1 mRNA -).
Experiment [11] deals with HLA-A2/WT1-S11 peptide on T2 cells (human). The experiment in a line: FACS, T2 cells loaded with WT1-S11 [..] (heteroclitic pep.), anti-human PE.
A further experiment concerns the target Unloaded T2 (human). The experiment in a line: FACS, unloaded T2 cells, anti-human PE.
In experiment [12] the target is HLA-A2/WT1-S7 peptide on T2 cells (human). Put plainly: FACS, T2 cells loaded with WT1-S7 [..], anti-human PE.
The target in experiment [13] is HLA-A2/Tyrosinase 369-377 peptide complex on cells (human). The experiment in a line: FACS, T2 cells loaded with TyrD [..], anti-human PE.
In experiment [14] the target is HLA-A2/WT1-S10 peptide on T2 cells (human). Put plainly: FACS, T2 cells loaded with WT1-S10 [..], anti-human PE.
Experiment [15] deals with HLA-A2 positive, antigen negative cells. The experiment in a line: FACS, 501A cells (melanoma, WT1 mRNA -).
Experiment [16] has the same target. The experiment in a line: FACS, SKMEL-5 cells (melanoma, WT1 mRNA -).
Experiment [17] has as its target HLA-A2/WT1-S16 peptide on T2 cells (human). The experiment in a line: FACS, T2 cells loaded with WT1-S16 [..], anti-human PE.
Experiment [18] deals with HLA-A2/WT1-S22 peptide on T2 cells (human). Put plainly: FACS, T2 cells loaded with WT1-S22 [..], anti-human PE.
Experiment [19] deals with HLA-A2/PAP 112-120 peptide complex on cells (human). The experiment in a line: FACS, T2 cells loaded with PAP112, anti-human PE.
In experiment [20] the target is HLA-A2/WT1 126-134 peptide complex on cells (human). Put plainly: FACS, SET-2 cells (essential thrombocythemia, WT1 mRNA +).
Experiment [21] has the same target. Put plainly: FACS, T2 cells loaded with WT1 1x10e-4M in DMSO, anti-human PE.
Experiment [22] shares this target. Put plainly: FACS, BV173 cells (B cell precursor leukemia, WT1 mRNA +).
In experiment [23] the target is HLA-A2/MAGE-A4 230-239 peptide complex on cells (human). The experiment in a line: FACS, T2 cells loaded with MAGE-A4 [..], anti-human PE.

On to ESK1 TCR-like antibody, for which the MFI in experiment [1] came to 18; in experiment [2] it was 1; in [3], 1.9; in experiment [4], 1.6; in experiment [5], 1.2; in experiment [6] it was 17.9. The MFI in [7] turned out to be 1; in experiment [8] it was 5; in [9], 1.1; in experiment [10], 5.2; in [11], 1.1; with Unloaded T2 (human) it was 1. Moreover, the MFI in experiment [12] stood at 3.1; in [13] it was 1; in [14], 1.4; in experiment [15], 10.7; in experiment [16], 4.3; in [17], 1.1. For the same substance, the MFI in [18] came to 1.1; in experiment [19], 1.1; in experiment [20], 26.3; in [21], 17.9; in experiment [22] it was 8.1; in experiment [23] it was 1.1.

The values are drawn from patent US20180179283A1.
